Four molecules from article PMC9579148 (European Journal of Medicinal Chemistry, 2022) can be followed below.

No end group written: not given here.

The target in the first assay is recombinant SARS-CoV-2 M^pro (Proteros) (SARS-CoV-2). Kind of assay: FRET enzymatic inhibition assay.
Consider Ac-Gly-His-Tyr-aldehyde (SMILES CC(=O)NCC(=O)N[C@@H](Cc1c[nH]cn1)C(=O)N[C@H](C=O)Cc1ccc(O)cc1) [compound 7 (aldehydic tripeptide)], for which the Kd is over 213 µM.

Take Ac-Gly-Tyr-His-aldehyde (SMILES CC(=O)NCC(=O)N[C@@H](Cc1ccc(O)cc1)C(=O)N[C@H](C=O)Cc1c[nH]cn1) [compound 8 (aldehydic tripeptide)]: the Kd came to 98.9 ± 11.9 µM.

On to Ac-Gly-His-His-aldehyde (SMILES CC(=O)NCC(=O)N[C@@H](Cc1c[nH]cn1)C(=O)N[C@H](C=O)Cc1c[nH]cn1) [compound 5 (aldehydic tripeptide)], for which the equilibrium dissociation constant (Kd) was over 107 µM.

In the case of Pro-His-His-aldehyde [compound 9 (aldehydic tripeptide)], the Kd was over 85 µM.

For the next assay the target is unchanged. Nature of the assay: cell-based or functional assay.
Take Ac-Gly-His-Tyr-aldehyde (SMILES CC(=O)NCC(=O)N[C@@H](Cc1c[nH]cn1)C(=O)N[C@H](C=O)Cc1ccc(O)cc1) [compound 7 (aldehydic tripeptide)]: the “IC50 of inhibition of M^pro enzymatic activity (FRET substrate cleavage)” value (“IC50 of inhibition … (FRET substrate cleavage)” for short) was over 425 µM.

As for Ac-Gly-Tyr-His-aldehyde (SMILES CC(=O)NCC(=O)N[C@@H](Cc1ccc(O)cc1)C(=O)N[C@H](C=O)Cc1c[nH]cn1) [compound 8 (aldehydic tripeptide)], the “IC50 of inhibition … (FRET substrate cleavage)” value turned out to be 198 µM.

Regarding Ac-Gly-His-His-aldehyde (SMILES CC(=O)NCC(=O)N[C@@H](Cc1c[nH]cn1)C(=O)N[C@H](C=O)Cc1c[nH]cn1) [compound 5 (aldehydic tripeptide)], the “IC50 of inhibition … (FRET substrate cleavage)” value is over 213 µM.

Take Pro-His-His-aldehyde [compound 9 (aldehydic tripeptide)]: the “IC50 of inhibition … (FRET substrate cleavage)” value was over 170 µM.
